{
  "source": "patent US9360486B2",
  "about": "“Allergen fragments” (Biomay AG, priority 2007, dated 2016)",
  "molecules": {"B1": {"name": "rAmb a 1.3: E. coli-produced full-length recombinant Amb a 1.3 isoform (R2 clone) (protein)", "chain": "AEGVGEILPSVNETRSLQACEALNIIDKCWRGKADWENNRQALADCAQGFAKGTYGGKWGDVYTVTSNLDDDVANPKEGTLRFAAAQNRPLWIIFKNDMVINLNQELVVNSDKTIDGRGVKVEIINGGLTLMNVKNIIIHNINIHDVKVLPGGMIKSNDGPPILRQASDGDTINVAGSSQIWIDHCSLSKSFDGLVDVTLGSTHVTISNCKFTQQSKAILLGADDTHVQDKGMLATVAFNMFTDNVDQRMPRCRFGFFQVVNNNYDRWGTYAIGGSSAPTILCQGNRFLAPDDQIKKNVLARTGTGAAESMAWNWRSDKDLLENGAIFVTSGSDPVLTPVQSAGMIPAEPGEAAIKLTSSAGVFSCHPGAPC", "modifications": "left off: things letters cannot carry"}, "B2": {"name": "alpha chain of Amb a 1.3 (modified version 1): recombinant modified (version 1) Amb a 1.3 alpha chain, aa 174-397, 224 amino acids; called alpha chain in Example 4 (protein)", "alpha": "VLPGGMIKSNDGPPILRQASDGDTINVAGSSQIWIDHCSLSKSFDGLVDVTLGSTHVTISNCKFTQQSKAILLGADDTHVQDKGMLATVAFNMFTDNVDQRMPRCRFGFFQVVNNNYDRWGTYAIGGSSAPTILCQGNRFLAPDDQIKKNVLARTGTGAAESMAWNWRSDKDLLENGAIFVTSGSDPVLTPVQSAGMIPAEPGEAAIKLTSSAGVLSCRPGAPC", "modifications": "Amb a 1 alpha chain"}, "B3": {"name": "beta-chain: recombinant modified (version 1) Amb a 1.3 beta chain, aa 26-173, 148 amino acids; called beta chain in Example 4 (protein)", "beta": "AEGVGEILPSVNETRSLQACEAYNIIDKCWRGKADWENNRQALADCAQGFAKGTYGGKWGDVYTVTSNLDDDVANPKEGTLRFAAAQNRPLWIIFKNDMVINLNQELVVNSDKTIDGRGVKVEIINGGLTLMNVKNIIIHNINIHDVK", "modifications": "Amb a 1 beta chain"}},
  "key": {"[1]": {"test_system": "Amb a 1-specific TCL and TCC", "experiment": "Proliferation of Amb a 1-specific TCL and TCC with allergens and chains", "type": "cell-based, human", "protocol": "Peripheral blood mononuclear cells (PBMC) were isolated from heparinized blood of allergic patients by Ficoll density gradient centrifugation. To generate allergen-specific T cell lines (TCL) and T cell clones (TCC), 1.5×10^6 PBMC were stimulated with optimal doses of ragweed or mugwort extract (4 μg/ml) or rAmb a 1.3 (10 μg/ml) in 24-well flat-bottomed culture plates (Costar, USA). After 5 days human rIL-2 (10 U/ml, Boehringer, Mannheim, Germany) were added and cultures were continued for additional 7 days. Then, T cell blasts were isolated by density centrifugation. The majority of T cell blasts was further expanded with IL-2 and irradiated PBMC. A small number of T cell blasts were used to establish monoclonal T cell cultures by limiting dilution: 0.3 T cells/well were seeded into 96 well round bottom plates (Nunclone) in the presence of 2×10^5 irradiated (60 Gy) PBMC, 0.25% v/v PHA (Gibco, USA) and rIL-2 (4 U/well) in the medium mentioned above. After 14-21 days, growing microcultures were expanded at weekly intervals with irradiated PBMC and rIL-2. The specificity of TCC was assessed in proliferation assays using irradiated allogeneic or HLA-matched PBMC or irradiated EBV-transformed allogeneic B-cells and 5 μg/ml Amb a 1.3. After 48 hours, cellular uptake of tritiated (^3H)-thymidine was performed to measure proliferation in counts per minute (cpm). When the stimulation index (SI; ratio between cpm obtained in cultures containing TCC plus autologous APC plus antigen, and cpm obtained in cultures containing TCC and APC alone) was >10, responses were considered as positive. Allergen-specific TCC were expanded by alternating turns of stimulation with autologous irradiated APC and allergen or with allogeneic feeder cells and rIL-2.\nProliferation and cytokine responses were determined.\nWhen compared with the results of the T cell epitope recognition in Table 3, 45/46 patients (98%) would recognize one or more epitopes in the Amb a 1 alpha-chain. […]"}, "[2]": {"test_system": "Amb a 1-specific TCL and TCC", "experiment": "Cytokine production in TCL and TCC (ELISA of supernatants)", "type": "cell-based, human", "protocol": "T cells were washed and incubated with irradiated autologous APC in the presence of the stimulant (5 μg/ml) for 48 hours. Cytokine levels in the resulting supernatants were measured in ELISA using matched antibody pairs (Endogen, USA) (sensitivity limits: IL-4: 9 pg/ml, IFN-γ: 9 pg/ml). Cultures containing TCC and APC alone served as negative controls. TCC with a ratio of IFN-γ/IL-4>10 were classified as Th1, 0.1-10 as Th0 and <0.1 as Th2. […] Proliferation and cytokine responses were determined."}, "[3]": {"test_system": "IgE of sera from ragweed pollen allergic patients", "experiment": "IgE dot-blot / non-denaturing IgE binding of recombinant Amb a 1.3", "parameters": "species or system human", "details": "sera from 17 ragweed pollen allergic patients", "description": "E. coli-produced rAmb a 1.3 was purified as described above and dotted on nitrocellulose membranes.\nThus, another approach for producing recombinant reagents with full IgE-binding activity was pursued, as described in section 4. Despite its low IgE-binding activity, rAmb a 1.3 was successfully used in vitro for T cell epitope mapping and proliferation assays, as correct folding is not essential for T cell recognition (see example 2)."}, "[4]": {"test_system": "IgE of sera from ragweed pollen allergic patients", "experiment": "SDS-PAGE IgE immunoblot with patients' sera", "type": "binding, human", "details": "standard procedure for SDS-PAGE/immunoblotting", "protocol": "Membrane strips were incubated with sera from ragweed pollen allergic patients (lanes 1-29) or with serum from a non-allergic donor (lane C). Bound IgE was detected with ^125I-labeled goat anti-human IgE. Ragweed pollen-sensitized patients were recruited in Austria (lanes 1-13) or in Italy (lanes 14-29).\nThe proteins were analyzed via SDS-PAGE using 15% acrylamide gels and 0.1% Coomassie staining with a molecular weight standard RPN 756 (GE Healthcare Life Sciences). Sera from allergic patients were tested for positive IgE-reactivity. rAmb a 1 and rArt v 6 were separated on 15% (w/w) polyacrylamide gels and electroblotted onto a PVDF membrane. After blocking the non-specific protein binding sites with Blocking buffer (per L: 7.5 g Na2HPO4, 1 g NaH2PO4, 5 g BSA and 5 mL Tween 20), the membrane was incubated with patients' sera (diluted 1:10 in Blocking buffer) for more than 6 hours at room temperature. The membrane was washed for at least 30 minutes with Blocking buffer before it was incubated with radiolabeled [^125 I]-anti human IgE (RAST, 5 µCi, MedPro) diluted in Blocking buffer (1:40) overnight at room temperature. After a second 30-minute wash, the membrane was placed onto an imaging plate. The screen was exposed for at least 24 hours and developed using a PhosphoImager Bas-1800 II scanner for detection and the instrument's supporting software (Fujifilm).\nnAmb a 1 undergoes spontaneously proteolysis during purification and it is cleaved into two chains, alpha and beta chain, respectively."}, "[5]": {"test_system": "IgE of sera from ragweed allergic patients", "experiment": "Human IgE ELISA of purified alpha chain", "type": "binding", "details": "modified (version 1) alpha chain of Amb a 1.3; 12 patients (FIG. 19)", "description": "If a peptide of the invention is to be used as a diagnostic reagent, it is not necessary that the peptide or protein has reduced IgE binding activity compared to the native Amb a 1 allergen. IgE binding activity of peptides can be determined by, for example, an enzyme linked immunosorbent assay (ELISA) using, for example, sera obtained from an individual (i.e. an allergic individual) that has been previously exposed to the native Amb a 1. Briefly, a peptide to be tested is coated onto wells of a microtiter plate. After washing and blocking the wells, antibody solution consisting of the serum or plasma of an allergic individual who has been exposed to the peptide being tested or the protein from which it was derived is incubated in the wells. The plasma is generally depleted of IgG before incubation. However, the depletion is not necessary if highly specific anti IgE-antibodies are used. Furthermore, allergic individuals who have not undergone specific immunotherapy have in some cases almost no detectable IgG antibodies specific for the allergen in question. […] The amount of IgE binding is then quantified and compared to the amount of IgE bound by a purified native Amb a 1 protein. Alternatively, the binding activity of a peptide can be determined by Western blot analysis. […] After incubation with the labelled secondary antibody, the amount of IgE bound is then determined and quantified. […]"}},
  "note": "“And” between values parts separate entries of the source, which are not always exact repeats. Equal values may be shown once. “Also recorded” adds a separate entry of the source.",
  "data": [
    {"molecule": "B1", "values": [
      {"measurement": "T cell proliferation compared with natural Amb a 1", "setting": "[1]; PBMC, TCL and TCC, different concentrations", "value": "comparable T cell proliferations"},
      {"measurement": "cytokine production compared with ragweed extract (FIG. 5) or natural Amb a 1 (FIG. 6)", "setting": "[2]", "value": "comparable cytokine production"},
      {"measurement": "IgE reactivity in non-denaturing assays (dot blot, ELISA)", "setting": "[3]", "value": "not able to bind human IgE; also recorded: very weak or no IgE reactivity"},
      {"measurement": "reaction with patients IgE after reduction and heat treatment", "setting": "[4]", "value": "reacted with patients IgE"}
    ]},
    {"molecule": "B2", "values": [
      {"measurement": "reaction of 2 TCC specific for epitopes within Amb a 1-alpha", "setting": "[1]; modified (version 1) chains of Amb a 1.3", "value": "reacted"},
      {"measurement": "IgE-binding activity in vitro (ELISA)", "setting": "[5]", "value": "low/no IgE-binding activity"}
    ]},
    {"molecule": "B3", "values": [
      {"measurement": "proliferation, % of the response to Amb a 1", "setting": "[1]; 2 TCL with strong reactivity to Amb a 1 (FIG. 20), modified (version 1) chains of Amb a 1.3", "value": "38% and 19%"}
    ]}
  ]
}
